# pKd: −log10 of the molar value. Values joined by “and” are separate entries in the source; they are usually repeats but may differ in a detail not shown here. Equal values may be shown once.
# Key:
# [1] = target: His-tagged recombinant mouse LDLR (mouse) (UniProt P35951); assay: SPR; His-tagged LDLR immobilised on a NiHC1000m sensor chip; VH4127 (10-160 nM) or Fc(A680)-VH4127 (1-16 nM) injected, single-cycle kinetics; 1:1 Langmuir model; Biacore T200
# [2] = target: His-tagged recombinant human LDLR (human) (UniProt P01130); assay: SPR; His-tagged mouse or human LDLR immobilised on a NiHC1000m sensor chip; VH4127 (10-160 nM) or Fc(A680)-VH4127 (1-16 nM) injected, single-cycle kinetics; double-subtracted sensorgrams fitted globally with the 1:1 Langmuir model (Biacore T200)
# Chain of His-tagged recombinant human LDLR (human) (P01130 22-788): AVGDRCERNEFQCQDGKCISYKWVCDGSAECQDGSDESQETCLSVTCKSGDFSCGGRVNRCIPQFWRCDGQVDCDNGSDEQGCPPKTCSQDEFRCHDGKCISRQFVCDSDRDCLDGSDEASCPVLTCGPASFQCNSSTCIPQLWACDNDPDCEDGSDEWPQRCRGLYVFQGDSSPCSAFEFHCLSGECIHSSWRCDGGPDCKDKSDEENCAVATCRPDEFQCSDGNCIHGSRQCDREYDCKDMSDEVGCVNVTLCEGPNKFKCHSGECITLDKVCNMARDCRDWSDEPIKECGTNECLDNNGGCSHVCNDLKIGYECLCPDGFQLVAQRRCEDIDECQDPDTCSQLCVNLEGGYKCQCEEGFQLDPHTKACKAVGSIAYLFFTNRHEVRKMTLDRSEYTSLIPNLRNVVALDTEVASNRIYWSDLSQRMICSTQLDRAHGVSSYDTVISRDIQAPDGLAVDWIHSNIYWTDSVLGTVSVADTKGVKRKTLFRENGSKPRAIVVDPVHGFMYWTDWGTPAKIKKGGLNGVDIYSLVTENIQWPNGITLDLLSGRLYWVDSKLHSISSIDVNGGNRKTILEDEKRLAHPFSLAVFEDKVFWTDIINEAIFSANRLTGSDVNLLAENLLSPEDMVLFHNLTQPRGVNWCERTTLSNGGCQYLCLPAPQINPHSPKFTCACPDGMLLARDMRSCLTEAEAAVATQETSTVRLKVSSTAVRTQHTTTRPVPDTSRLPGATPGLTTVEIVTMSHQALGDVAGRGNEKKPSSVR
# [3] = target: His-tagged recombinant human LDLR (human) (UniProt P01130); assay: SPR; His-tagged LDLR immobilised on a NiHC1000m sensor chip; VH4127 (10-160 nM) injected, single-cycle kinetic method; double-subtracted sensorgrams fitted globally with the 1:1 Langmuir model (Biacore T200)
# [4] = target: His-tagged recombinant mouse LDLR (mouse) (UniProt P35951); assay: as above
# Chain of His-tagged recombinant mouse LDLR (mouse) (P35951 22-790): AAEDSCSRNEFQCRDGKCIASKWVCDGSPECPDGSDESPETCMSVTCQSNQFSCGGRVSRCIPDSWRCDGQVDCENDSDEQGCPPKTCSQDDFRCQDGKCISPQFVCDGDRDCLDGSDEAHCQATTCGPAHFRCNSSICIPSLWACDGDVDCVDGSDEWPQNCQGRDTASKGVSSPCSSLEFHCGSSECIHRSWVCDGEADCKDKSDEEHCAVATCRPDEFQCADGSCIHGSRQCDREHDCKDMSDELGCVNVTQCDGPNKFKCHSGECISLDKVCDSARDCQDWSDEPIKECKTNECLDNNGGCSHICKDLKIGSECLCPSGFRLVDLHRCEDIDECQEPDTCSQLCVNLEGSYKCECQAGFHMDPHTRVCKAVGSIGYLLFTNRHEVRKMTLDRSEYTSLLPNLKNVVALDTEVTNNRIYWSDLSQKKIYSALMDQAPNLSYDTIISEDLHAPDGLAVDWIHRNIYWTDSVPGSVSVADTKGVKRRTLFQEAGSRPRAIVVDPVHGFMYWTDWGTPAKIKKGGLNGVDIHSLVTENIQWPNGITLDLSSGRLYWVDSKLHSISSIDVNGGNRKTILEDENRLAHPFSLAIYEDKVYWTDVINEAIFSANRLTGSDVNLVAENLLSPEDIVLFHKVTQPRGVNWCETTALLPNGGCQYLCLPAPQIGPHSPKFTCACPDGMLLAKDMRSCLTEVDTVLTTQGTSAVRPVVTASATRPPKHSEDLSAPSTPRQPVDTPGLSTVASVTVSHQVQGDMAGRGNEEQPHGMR
Substance,pKd [1],pKd [2],koff [3],kon [3],koff [4],kon [4]
Fc(A680)-VH4127 conjugate (Fc fusion),10.04,–,–,–,–,–
VH4127 peptide,–,7.67 and 7.70 and 7.63,0.0894 s⁻¹,4.06e+06 M⁻¹ s⁻¹,0.0821 s⁻¹,1.66e+06 M⁻¹ s⁻¹
